Measurements taken from article PMC9927398.

T1: CRP WT (CRPMtb) (Mycobacterium tuberculosis (strain for …, UniProt P9WMH3 1-224))
T1 sequence: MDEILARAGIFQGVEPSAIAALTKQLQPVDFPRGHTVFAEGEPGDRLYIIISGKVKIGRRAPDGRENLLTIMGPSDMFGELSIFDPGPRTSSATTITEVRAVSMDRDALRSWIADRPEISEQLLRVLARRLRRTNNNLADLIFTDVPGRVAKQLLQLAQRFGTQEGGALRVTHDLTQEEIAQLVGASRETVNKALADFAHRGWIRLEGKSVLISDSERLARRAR

B1: 2D3 (dsDNA)
DNA 1: CTCTATGTGACGAAGCCCACATCGAC
DNA 2: GTCGATGTGGGCTTCGTCACATAGAG
B2: 2D3 unlabeled competitor (dsDNA)
DNA 1: CTCTATGTGACGAAGCCCACATCGAC
DNA 2: GTCGATGTGGGCTTCGTCACATAGAG

How the values were obtained:
CRP WT (CRPMtb) [1] = biological target: T1, CRP WT (CRPMtb); experiment: EMSA; no cAMP; 5 and 15 uM protein; conditions: protein: recombinant; tags: His tag (Ni2+ purified; pET28a); chain copies: 2; blunt
CRP WT (CRPMtb) [2] = biological target: T1, CRP WT (CRPMtb); experiment: competition; conditions: protein: recombinant; tags: His tag (Ni2+ purified; pET28a); chain copies: 2; blunt

Binder | binding result (CRP WT (CRPMtb) [1]) | binding result (CRP WT (CRPMtb) [2])
B1 | binds | 
B2 |  | binds
